B1: Hairpin Ribozyme (parent)
chain: GUCCUCUUUCACGUGCGCGUGAAAGAGAGAAGUGAACCAGAGAAACACACGUUGUGGUAUAUUACCUGGUA

Variants of: B1
Assay: self-cleavage, relative activity (ratio to wild type); higher = more cleavage; co-transcriptional

Variant	self-cleavage
GUCCUCUUUCACGUGCGCGUGAAAGAGAGUAGUGAACCAGAGAAACACACGUUGUGGUAUAUUAACUGGUA [A30U C65A]	0.14
GUCCUCUUUCACGUGCGCGUGAAAGAGAGAAGUGAACCAGAGACACACACGUUGUGGUAUACUACCUGGUA [A44C U62C]	0.279
GUCCUCUUUGACGUGAGCGUGAAAGAGAGAAGUGAACCAGAGAAACACACGUUGUGGUAUAUUACCUGGUA [C10G C16A]	0.555
GUCCUCUUUGACGUGUGCGUGAAAGAGAGAAGUGAACCAGAGAAACACACGUUGUGGUAUAUUACCUGGUA [C10G C16U]	0.735
GUCCUCUUUUACGUGCGCGUGAAAGAGAGAUGUGAACCAGAGAAACACACGUUGUGGUAUAUUACCUGGUA [C10U A31U]	0.103
GUCCUCUUUCACGUGCGCGUGAAAGAGAGAAGUGGACCAGAGAAACACUCGUUGUGGUAUAUUACCUGGUA [A35G A49U]	0.174
GUCCUCUUUCACGUGCGCGUGAAAGAGAGACGUGAACCAGAGGAACACACGUUGUGGUAUAUUACCUGGUA [A31C A43G]	0.107
GUCCUCUUUCACGUGCGCGUGAAAGAGAGAAUUGAACCAGAGAAACACACGUUGUGGUAUAUUAACUGGUA [G32U C65A]	0.064
GUCCUCUUUCACGUGCGCGUGAAAGAGAGAAGUGAACCAGAGAAACAGACAUUGUGGUAUAUUACCUGGUA [C48G G51A]	0.172
GUCCACUUUCACGUGCGCUUGAAAGAGAGAAGUGAACCAGAGAAACACACGUUGUGGUAUAUUACCUGGUA [U5A G19U]	0.312
GUACUCUUUCACGUGCGCGUGAAAGAGAGAAGUGAACCAGAGAAACACACGUUGUGGUAUAUUACCUGGUA [C3A]	0.714
GUCCUCUUUCACGUGCGCGUGAAAGAGAGAAGUGAACCAGAGAAAGACACGUUGUCGUAUAUUACCUGGUA [C46G G56C]	0.123
GUCCUCUUUCACGUGCGCGUGAAAGAGAGAAGUGAACCAGAGAAACACACGUGGUGGUAUAUUACCUGAUA [U53G G69A]	0.363
GUCCUCUAUCACGUGCGCGUGAAAGAGAGAAGUGAACCAGAGAAACACACGUUGUGCUAUAUUACCUGGUA [U8A G57C]	0.0778
GUCCUCUUACACCUGCGCGUGAAAGAGAGAAGUGAACCAGAGAAACACACGUUGUGGUAUAUUACCUGGUA [U9A G13C]	0.399
GUCCUCUUUCACGUGCGCGUGAAAGAGCGAAGUGAACCAUAGAAACACACGUUGUGGUAUAUUACCUGGUA [A28C G40U]	0.101
GUCCUCUUUCACGUUCGCGUGAAAGAGAGAAGUGAACCAGAGAAACACAGGUUGUGGUAUAUUACCUGGUA [G15U C50G]	0.353
GUCCUCUUUCACGUGCGCGUGAAACAGAGAAGUGAACCAGAGAAACACACGUCGUGGUAUAUUACCUGGUA [G25C U53C]	0.417
GUCCUCUUUCACGUGCGCGUGAAAGAGAGAAGUGAACCCGAGAAACACACGUUGUGGUAUAUUACCCGGUA [A39C U67C]	0.149
GUCCUCUUUCACGUGCGCGUGAAAGAGAUAAGUGAACCAGAGAAACACACGUUGUGGUAUAGUACCUGGUA [G29U U62G]	0.0909
GUCCUCUUUCACGUGCGCGUGAAAAAGAGAAGUGAACCAGAGAAACACACGUUGUGGUCUAUUACCUGGUA [G25A A59C]	0.196
GUCCUCAUUCACGUGCUCGUGAAAGAGAGAAGUGAACCAGAGAAACACACGUUGUGGUAUAUUACCUGGUA [U7A G17U]	0.89
GGCCUCUUGCACGUGCGCGUGAAAGAGAGAAGUGAACCAGAGAAACACACGUUGUGGUAUAUUACCUGGUA [U2G U9G]	0.206
GUCCUCUUUCACGUGCGCUUGAAAGAUAGAAGUGAACCAGAGAAACACACGUUGUGGUAUAUUACCUGGUA [G19U G27U]	0.262
GUCCUCUUUCACGUGCGCGUGAAAGAGAGAAGUGAACCAUAGAACCACACGUUGUGGUAUAUUACCUGGUA [G40U A45C]	0.103
GUCCUCUUUCACGUGCGCGUGAAAGAGAGAAGUGAACCAGAGAUACACACGUUGUGCUAUAUUACCUGGUA [A44U G57C]	0.0924

Variant	self-cleavage
GUCCUCUUUCACGUGCGCGUGAAAGAGAGAAGUGAACAAGAGAAACACACGUCGUGGUAUAUUACCUGGUA [C38A U53C]	0.228
GUCCUCUUUCACGUGCGCGUGAAAAAGAGAAGUGAACCAGAGAAACACACGUUGUGGUAUAUGACCUGGUA [G25A U63G]	0.173
GUCCUCUUUCACGUGCGCGUGAAAGAGAGAAGUGAAUCAGAUAAACACACGUUGUGGUAUAUUACCUGGUA [C37U G42U]	0.27
GUCCUCUUUCACGUGCGCGUGAAAGAGAGAAGUGAUCCAGAGAAACACACGUUGCGGUAUAUUACCUGGUA [A36U U55C]	0.124
GUCCUCUUUCACGUACGCGUGAAAGAGAGAAGUGAACCAGAGAAACACACGUUGUGCUAUAUUACCUGGUA [G15A G57C]	0.101
GUCCUCUUUCAAGUGCGCGUGAAAGAGAGAAGUGAACCAGAGAAACACACGUUGUGGUAUAUUAGCUGGUA [C12A C65G]	0.282
GUCCUCUUUCACGUGCGCGUGAAAGAGAGAAGUGAACGAGAGAAACACACGUUAUGGUAUAUUACCUGGUA [C38G G54A]	0.105
GUCCUCUUUCACGUGCGCGUGAAAGAGAGAAGUGAACCAGAGAAACACACGUUGUGGUAUAUCACCGGGUA [U63C U67G]	0.111
GUCCUCUUUCACGUGCGCGUGAAAGAGAGAUGUGAACCAGAGAAACACACGUUGUGGUAUAUUUCCUGGUA [A31U A64U]	0.134
GUCCUCUUUCACGUGCGCGUGAUAGAGAGAAGUGAACCAGAGUAACACACGUUGUGGUAUAUUACCUGGUA [A23U A43U]	0.123
GUCCUCUUUCACGUGCGCGUGUAAGAGAGAAGUGAACCAGAGAAACACACGUUGUGGUAUAUUAGCUGGUA [A22U C65G]	0.266
GUCCUCUUUCAAGUGCGCGUGAAAGAGAGAAGUGAAUCAGAGAAACACACGUUGUGGUAUAUUACCUGGUA [C12A C37U]	0.578
GUCCUCUUUCACAUGCGCGUGAAAGAGAGAAGUGAACCAGAGAAACACACGUUGUAGUAUAUUACCUGGUA [G13A G56A]	0.188
GUCCUCUUUCACGUGCGCGUGAAAGAGAGAACUGAACCAGAGAAACACACGUUGUGGUUUAUUACCUGGUA [G32C A59U]	0.103
GUCCUCUUUCACGUGCGCGUGAAUGAGAGAAGUGAACCAGAGAAUCACACGUUGUGGUAUAUUACCUGGUA [A24U A45U]	0.159
GUCCUCUUUCACGUGCGCAUGAAAGAGAGAAGUGAACCAGGGAAACACACGUUGUGGUAUAUUACCUGGUA [G19A A41G]	0.754
GUCCUCUUACACGUGCGCGUGAAAGAGAGAAGUGAACCAGAGAAACACACGUUGUGGGAUAUUACCUGGUA [U9A U58G]	0.494
GUCCUCUUUCACGUGCGCGUGAAAGAGAGAAGUGAACCAGAGAAACACACGUUGUGUUAUAUUACCUGAUA [G57U G69A]	0.149
GUCCUCUUUCACGGGCGCGUGAAAGAGAGAAGUGAACCAGAGAAACACACGUUGUGGUAGAUUACCUGGUA [U14G U60G]	0.58
GUCCUCUUUCACGUGCGCGUGAAAGACAGAAUUGAACCAGAGAAACACACGUUGUGGUAUAUUACCUGGUA [G27C G32U]	0.15
GUCCUCUUUCACGUGCGAGUGAAAGAGAGAAGUGAACCAGAGACACACACGUUGUGGUAUAUUACCUGGUA [C18A A44C]	0.219
GUCCUCUUUCACGUGCGCCUGAAAGAGAGAAGUGAACCAGAGAAACACACCUUGUGGUAUAUUACCUGGUA [G19C G51C]	0.775
GUCCUUUUUCACGUGCGCGUGAAAGAGAGAAGUGAACCAGAGAAACUCACGUUGUGGUAUAUUACCUGGUA [C6U A47U]	0.0966
GUCCUCUUUCACGUGCGCGUGAAAGAGAGAAGUGAACCACAGAAACACGCGUUGUGGUAUAUUACCUGGUA [G40C A49G]	0.132
GUCCUCAUUCACGUGCGCGUGAAAGAGAGAAGUGAACCAGAGCAACACACGUUGUGGUAUAUUACCUGGUA [U7A A43C]	0.186
GUACUCUUUCACGUGCGCGUGAAAGAGAGAAGUGAACCAGAGAAACACACGUUGUGGUAUAUUACCGGGUA [C3A U67G]	0.199

Variant	self-cleavage
GUCCUCUUUCACGUACGCGUGAAAGAGAGAAGUGAACCAGAGAAACACACGUUGUGGUAUAUUACGUGGUA [G15A C66G]	0.0886
GGCCUCUUUCACGUGCGGGUGAAAGAGAGAAGUGAACCAGAGAAACACACGUUGUGGUAUAUUACCUGGUA [U2G C18G]	0.373
GUCCUCUUUCACGUGCCCGUGAAAGAGAGGAGUGAACCAGAGAAACACACGUUGUGGUAUAUUACCUGGUA [G17C A30G]	0.0659
GUCCUCUUUCACGUGCGCGUGAAAGAGAGAAGUAAACCAGAGAAACACACGUCGUGGUAUAUUACCUGGUA [G34A U53C]	1.13
GACCUCUUUCACGUGCGCGUGAAAGAGAGAAGUGAACCAGAGAAACACCCGUUGUGGUAUAUUACCUGGUA [U2A A49C]	0.149
GUCCUCUUUCACGUGCGCGUGAAAGAGAGAAGUGAACCAGAGAAACACACGUCGUCGUAUAUUACCUGGUA [U53C G56C]	0.149
GUCCUCUUUCACGUGCGCGUGAAAGAGAGAAGUGAACCAGACCAACACACGUUGUGGUAUAUUACCUGGUA [G42C A43C]	0.137
GUCCUCUUUCACGUGCGCGUGAAAGGGAGAAGUGAACCAGAGAAACACACGUUGUGUUAUAUUACCUGGUA [A26G G57U]	0.252
GUCCUCUUUCACGUGCGCGUGAAAGAGUGAAGUGAACCAGAGAAACACCCGUUGUGGUAUAUUACCUGGUA [A28U A49C]	0.18
GUCCUCUUUCACGUGCGCGUGAAAGAGAGAAGUGAACCCGAGAAACACGCGUUGUGGUAUAUUACCUGGUA [A39C A49G]	0.208
GGCCUCUUUCACGUGCGCGGGAAAGAGAGAAGUGAACCAGAGAAACACACGUUGUGGUAUAUUACCUGGUA [U2G U20G]	0.186
GUCCUCUUUCACGUGCGCGUGAAAGAGAUAAGUGAACCAGAGAAACACACGUGGUGGUAUAUUACCUGGUA [G29U U53G]	0.102
GUCCUCUUUCACGUGCGCGUGAAAGAGAGAAGUGAACCAAAGAAACUCACGUUGUGGUAUAUUACCUGGUA [G40A A47U]	0.154
GUCCUCUUUCACGUGCGCGUGAAAGAGAGAAGUGAACCAGAGAAACACACGCUGUGGUCUAUUACCUGGUA [U52C A59C]	0.254
GUCCUAUUUAACGUGCGCGUGAAAGAGAGAAGUGAACCAGAGAAACACACGUUGUGGUAUAUUACCUGGUA [C6A C10A]	0.404
GUCCUCUUUCACGUGCGCGUGAAAGAGAGAAGUGAACCAGGGAAACACACGUUGUGGUAUAUUACCUAGUA [A41G G68A]	0.55
GUCCUCUUUCACGUGCCCGUGAAAGAAAGAAGUGAACCAGAGAAACACACGUUGUGGUAUAUUACCUGGUA [G17C G27A]	0.419
GUCCUCUUUCACGUGCGCUUGAAAGAGAGAAGUGAACCAGAGAAACACGCGUUGUGGUAUAUUACCUGGUA [G19U A49G]	0.545
GUCCUCUUUCACGUGCGCGUGAAAGAGAGAAGUGAACCAGAGAAACACACGUCGUGGUAUUUUACCUGGUA [U53C A61U]	0.377
GUCCUCUUUCACGUGCGCGUGAAAGAGAGAAGUGACCCAGAGAAACACACGUUGUAGUAUAUUACCUGGUA [A36C G56A]	0.09
GUCCUCCUCCACGUGCGCGUGAAAGAGAGAAGUGAACCAGAGAAACACACGUUGUGGUAUAUUACCUGGUA [U7C U9C]	0.673
GUCCUCUUUCACGUGCGCGUGAAAGAGAGAAGUGAACCAGCGAUACACACGUUGUGGUAUAUUACCUGGUA [A41C A44U]	0.154
GUCCUCUUUCACGUGCGCGUGAAAGAGAGAAGUGAACCAGAGUCACACACGUUGUGGUAUAUUACCUGGUA [A43U A44C]	0.157
GUCAUCUCUCACGUGCGCGUGAAAGAGAGAAGUGAACCAGAGAAACACACGUUGUGGUAUAUUACCUGGUA [C4A U8C]	0.113

Reference: the RNAGym collection of RNA variant scans (doi:10.7554/elife.80360)
